assay: soluble fraction after stress (log2 fold change); higher = more stays soluble; pooled small domains, quantitative proteomics; settings: stress: pH 4
Outline: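 With high-throughput quantitative proteomics, pooled custom libraries of small protein domains were measured after pH 4 stress. Each domain's soluble amount after the stress gives a fold change taken as aggregation propensity. Higher log2 values mean more of the domain stayed soluble.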

Row | Sequence | soluble fraction (log2)
1 | HMISVENLSNREFEIFQLIGNGFSTKEMAKKLNLSIYTVESHKKNIKEKLKLKNSSDLSKYAIQWVIMQN | -1.35
2 | HMRVGISRNSGAAGIAVWLTQKLGRPVAKTEEIVHILKNWVDDQYEAGRVTNIGDGELWSVYKQMEAEE | 0.0584
3 | HMSATPQRMTIIDALDSSGKNLSAYELLDLLNDKGQLFNISTIYRVLDFWIEMGIVHKINSSNTYL | 0.132
4 | HMRSSALDEIPGIGKQRKKNLLVHFTSVAKIKEASLDEIAAVPGMNRKAALVVVEFFQNQERE | 0.158
5 | HMGLLLSQLDKDYQRYIDLADSTFRDNQLAVSRGWYNRALGVKAAEKYPKDQIAEIEKKIAERM | -0.108
6 | HMSKLQKTKYAGVYFTEDTQTRVKTYVARIVLAGIIDTEVVVGHSNDQHRTNAAIAYQRRLELIQEAKN | -0.372
7 | HMSYTYPVARLNHIKGKWYVLVSVPAHLRHLFPNQRDLRRSTGTDDESLAKRKQHALAQEIYDLFD | 0.00145
8 | HMTMTIEITVNGKTKTLVAELSLADLLRDLGMTKGRIAVELNGHIVPRSQFSSKTISNLDSIEIVQ | 0.138
9 | HMNRMKLLREQHNLSQTDLAKILNISRQSYNFYENEKRDPDTTMLIRIADFFNVSLDYLLGRTNN | -0.0385
10 | HMDEKVTIPSVSGLLLSEAKTKLVDAGLTVETVYDDESKEAKDTVLSQSPLQYGKVDKGTVVTLTVSSGKG | 0.417
11 | HMSDKPRYYINGNTLFISDKSVKKVLFSDLSGRSILHTTETAINIATFRGAHILTVIYTDGSTKSEVIF | 0.235
12 | HMLPLIEVPAVTGKYLTKAKSALKDAGLDTGDIKRVEHEEHGENYVLKQDPPAGTKVPFGTTVSLTVVAP | 0.15
13 | HMGGTTLIAKQATVTGDIQFSSNLDIEGRVVGAISVEPGKEAMLHVVEGGSVEGEIRVPSAVINGKVTGDI | -0.775
14 | HMINEEELLKIENIKRKYPDSKAALMPVLYFFQEKYGFISDDSIKEISQLLNISEVDIKGVVSFYEMFHEK | -1.04
15 | HMLPDLLNGRVIPSPEKVIRARLNRGVWELLVQWVGRAPSDATWENLLEFKSAYPSVQLEDALF | -1.1
16 | HMAVKLELYRVFKEVAETGNISAAAKNLYISQSAVSQSIKQLETALQARLFARSPRGVTLTGEGQMLYQYV | -0.652
17 | HMAKNIEVPNLVGSTISVARNDLKQLGLHVIVRDSVWSEDKKIDTILEQFPEPGKKLKPEGVVQVVVSI | 0.0706
18 | HMTTGGAEELGRTERKIVEQVGRGLSNREIAQVLGLSEGTVRNYLSTILGKLGLRDRTQLAIWSVQTGFAA | -0.371
19 | HMAQTSAELIIEYLKRNDGFMELTDKSPADEIYETFGISKKNFKMAVGSLYKNRVIEIGQNGIRLVE | -0.0445
20 | HMVDISLSDRELEVLRLLAMGLSNADISRRLYLSEGTIRNYMSGIFSKLNVSDRTQAVVIALREGLVNL | -0.976
21 | HMVKNYYEILEVDKKASPEVIEKAYKTLAKKYHPDLQEAENNGQYEEKMKEINEAYSVLSDEFKRRTYDEQ | 0.103
22 | HMGKKQLVVDLQSIITDVPAALKSYGLEIGQDGKSLIYTYDTKGERTGITTLLNDLQKAGLQMTDMKTQQ | -0.0755
23 | HMADEGFRQTVLAVLARWESKIHHGQYNALKAKVMNGNWSSFVKQVVKFQGKFIHPDAAKELLGLFG | -1.17
24 | HMQIIEVPYSEFLKKLESGQISEVSRDSYQIVFTDRSQPPIIYKTGLMEDPGLVDKMQEAGVTFTSP | -0.228
25 | HMYLPLREVVFNALRTAIIHGEFKPGERLMEMHLAKSLGVSRTPVREAMRMLELEGLVVMIPKKGAEVAR | -0.408
26 | HMQITAPVQKIDGVEYYMHKVEQGQTLYSISKLYNVGVKEIQKANQLGTEGIQLGQVLKVRKGG | 0.00111
27 | HMSDKNVYGKYKNVFLSDEEFSELKQFYPNDWSDRIETLSEGIELKGYKYKNYLLAIKKWAEYEGQKAD | -0.77
28 | HMVMATPHNTAKAGDIAKTVIMPGDPLRAKYIADNYLDNAVQFNVVRNIYGYTGVYRGTDISVMASGM | 0.0409

Row | Sequence | soluble fraction (log2)
29 | HMAERLQARIDAPGVRLDKALAETFPTLSRARLQALLADGAVTRDGQTVSNGSAKAQPGLYVVALPPVA | 0.316
30 | HMFEEPYLATYPVLIDPKLAFNVLDTMLEGLEVKMDQDEETGAISVLAPASIHTKITEYLDALSKQ | -1.74
31 | HMNTYVLPDALKSQLSVEDTGMLTKQLQALPETLAEGVLDSLSQMLSKNTLQNPVGWMLAVMKRAREGNFN | -0.282
32 | HMNFFQEIGNSILIELNKKNWTQSMFAHKIGVSDEVFKQIVQGKKALNAVEIAKIANTLDVDPEKLLRK | -0.0391
33 | HMGPVALGVTDGATYFSSVTITFRRGTAVLDGEPIASGHTVYKSGAHSLTLTAGGKTRTIAFTMDT | 0.139
34 | HMQDPVWVDWLGENDWFQKDPKRRGLANGYSEILRAEQPELVGRPFLDEVTRRVQADFPELFG | -1.33
35 | HMLDNHPQSKKIRALWLEMAAAGVVRDSSEQALALWVKRETGISALRWLSNEQASSVIEKLKKWQRRAAG | -0.0161
36 | HMEAVLTISPGMYSESVSAELVRLGIITNQKEFNSYLVNNGYAERIQTGDFKIKADMSYDEIARIITK | -0.489
37 | HMAFKNGLLQTSKKVTLVRKVDGVTMRFDSLRAASVFLGRNKGYLSNVIKNGRTLDNYEIVVGE | 0.0346
38 | HMEVPMELPRQLRANRERLGLSQEDVAHAIYVSRQTMSSWERGKTYPDVQSLMLLSHLFGISIDELVKGDV | -0.338
39 | HMKTGNIVMVNLGWKGKYYSIKMFFPQVSKPSRKDVQDQIEKIYPGGKLYTFVVSNYEPGEPMLHA | -0.164
40 | HMQISDEGELSGIVRKIIDANPQSVADYKAGKKKAIGFLVGQIMIETKGRANPASVNELLIKKLE | 0.105
41 | HMNGLPDLSRYTGVSIVDGLASVGSDSSFAYRAKIAETLGISDYKGSAGQNLEMIRKLGGKV | -0.172
42 | HMILVLKPGAPEDLKNELIHDIEKMGLRVHVSVGEGTTIIGLIGDTSKISKYTFSSYEIVSNVLRVT | -0.35
43 | HMQLDLTSTLDHMYKQMRNDHPRALLMAVEKEMVLRALKETDGNQLRASDILGISRSTLRKRIEEFDINS | -0.257
44 | HMLKEGQYSPNHFHWHKMEDIINRGGGTLLIRVYNSLPDEEIDRESDVTVHMDGVTRTVPAGTQLRLE | -0.345
45 | HMQDPTAVISRVLEERKHQPGALLPILHGIQDALGYVPREAVAQIAQALNLSRAEIHGVVSFYHHFR | -0.311
46 | HMVVVLPGETIKIDLIREGKDKQALGYLEDGTMIVVDNAKHLIGKNVEIEIDNVLPKEAGRVIFASLHGA | -0.942
47 | HMEEFIEHTVEKGEFLSAIIVAYNQHLKSKGFKSITTRDILNANPKLKPELIQVGQKIKIPRRKK | -0.0958
48 | HMKGPAFAKIDLTQLPAGLTSFLNTNAAGFKLDYAVAITKDSVIIEYHVGVTIGTAKKEFHLDPNFQLLP | -0.1
49 | HMDEYTAVDSRLDLELAMKRLKPEEAEVLRLVFDYGLPQRAIAERLGVSQMSVSRMQRRAIGKLKRWLSDN | -0.678
50 | HMQQEAVNLVQSRGQQAIEPVHIMQGVMKVGENVTNFIFQKLGMNGQQVALVVDKQIDSLPKVSGGEPYL | -0.0637
51 | HMNNTIKFFVSQDDDSTRLDVFLSKKIENLTRSNIKKFINLNNVKINKATINSPSKKVKLYDEIEIKFSS | -1.19
52 | HMKGKIYFFEEGVDRVGGVERVISTLANEFSKKYKVNVISFYKTRKETFFKYNSDIDITYLSK | -0.264
53 | HMQSAMALTKDLIEQQGKYYHRGQPFTGVGFAKNKKGKFVTEEPFKNGLLHGKRVNYDHNGHVLAREK | -0.12
54 | HMTNIQFINLKMTDNHPWIHQYIKDIILPPQTRIVMIKRNDIKTIPKGERRIEKDDELILSAFESQT | -1.27
55 | HMELEFLTEKQKEALILAVNRGYYDVDSEVTLKRLADELGIARSTYGEHLKRAESEALKMVVSDLLRD | -1.03
